According to patent publication US20140087995A1 (published 2014):
Numbered stars: 1 amine (or outer) side, 2 acyl side, 3 side chain; on linkers, the order of the positions; unused ones are H or OH. Bridge positions count the residues as written; N and C are the ends. Side chains are listed from the residue outwards. Ends that are not written are not given here. * marks the point of attachment. C20 diacid = O=C(O)CCCCCCCCCCCCCCCCCCC(=O)*; γGlu = O=C(O)[C@H](CCC(=O)[*:2])N[*:1]

T1: human amylin 3(a) receptor (human calcitonin receptor co-expressed with RAMP-3) (human, UniProt P30988 25-474; O60896 24-148, limits assumed)
T1 sequence (looked up) 1: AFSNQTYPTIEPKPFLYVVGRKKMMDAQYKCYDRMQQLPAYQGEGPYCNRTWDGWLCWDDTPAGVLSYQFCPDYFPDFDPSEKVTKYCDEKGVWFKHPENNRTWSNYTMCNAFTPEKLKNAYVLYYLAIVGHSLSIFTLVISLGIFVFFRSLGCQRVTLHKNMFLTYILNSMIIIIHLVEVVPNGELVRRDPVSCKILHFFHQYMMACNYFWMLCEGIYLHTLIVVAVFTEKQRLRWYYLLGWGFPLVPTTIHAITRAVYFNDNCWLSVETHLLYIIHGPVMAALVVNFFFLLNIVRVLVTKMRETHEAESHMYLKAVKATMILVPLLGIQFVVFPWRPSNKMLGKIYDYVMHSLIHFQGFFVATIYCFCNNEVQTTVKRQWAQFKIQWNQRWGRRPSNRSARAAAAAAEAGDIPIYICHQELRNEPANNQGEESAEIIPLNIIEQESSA
T1 sequence (looked up) 2: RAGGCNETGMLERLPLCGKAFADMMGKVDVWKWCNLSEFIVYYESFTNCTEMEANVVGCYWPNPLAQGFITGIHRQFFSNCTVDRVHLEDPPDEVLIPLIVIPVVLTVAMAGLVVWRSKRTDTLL


Biological target: T1, human amylin 3(a) receptor (human …)
Assay: cell-based or functional assay

| Ratio hCT/hAmylin funct. (hCTR EC50 over hAmylin-R EC50) | hAmylin-R funct. EC50 (pM) | Binder |
| --- | --- | --- |
| 26.6 | 146 | K([γGlu-C20 diacid])CNTATCATQRLAHFLRHSSPNFGAIPSSTNVGRNTY-NH2 (disulfide 2-7; N-terminus assumed; SMILES CC[C@H](C)[C@H](NC(=O)[C@H](C)NC(=O)CNC(=O)[C@H](Cc1ccccc1)NC(=O)[C@H](CC(N)=O)NC(=O)[C@@H]1CCCN1C(=O)[C@H](CO)NC(=O)[C@H](CO)NC(=O)[C@H](Cc1c[nH]cn1)NC(=O)[C@H](CCCNC(=N)N)NC(=O)[C@H](CC(C)C)NC(=O)[C@H](Cc1ccccc1)NC(=O)[C@H](Cc1c[nH]cn1)NC(=O)[C@H](C)NC(=O)[C@H](CC(C)C)NC(=O)[C@H](CCCNC(=N)N)NC(=O)[C@H](CCC(N)=O)NC(=O)[C@@H](NC(=O)[C@H](C)NC(=O)[C@@H]1CSSC[C@H](NC(=O)[C@@H](N)CCCCNC(=O)CC[C@H](NC(=O)CCCCCCCCCCCCCCCCCCC(=O)O)C(=O)O)C(=O)N[C@@H](CC(N)=O)C(=O)N[C@@H]([C@@H](C)O)C(=O)N[C@@H](C)C(=O)N[C@@H]([C@@H](C)O)C(=O)N1)[C@@H](C)O)C(=O)N1CCC[C@H]1C(=O)N[C@@H](CO)C(=O)N[C@@H](CO)C(=O)N[C@H](C(=O)N[C@@H](CC(N)=O)C(=O)N[C@H](C(=O)NCC(=O)N[C@@H](CCCNC(=N)N)C(=O)N[C@@H](CC(N)=O)C(=O)N[C@H](C(=O)N[C@@H](Cc1ccc(O)cc1)C(N)=O)[C@@H](C)O)C(C)C)[C@@H](C)O, also called compound 85) |
| 20.1 | 27 | K([γGlu-C20 diacid])CNTATCATQRLAHFLRHSSPNFGAIPSSTNVGSHTY-NH2 (disulfide 2-7; N-terminus assumed; SMILES CC[C@H](C)[C@H](NC(=O)[C@H](C)NC(=O)CNC(=O)[C@H](Cc1ccccc1)NC(=O)[C@H](CC(N)=O)NC(=O)[C@@H]1CCCN1C(=O)[C@H](CO)NC(=O)[C@H](CO)NC(=O)[C@H](Cc1c[nH]cn1)NC(=O)[C@H](CCCNC(=N)N)NC(=O)[C@H](CC(C)C)NC(=O)[C@H](Cc1ccccc1)NC(=O)[C@H](Cc1c[nH]cn1)NC(=O)[C@H](C)NC(=O)[C@H](CC(C)C)NC(=O)[C@H](CCCNC(=N)N)NC(=O)[C@H](CCC(N)=O)NC(=O)[C@@H](NC(=O)[C@H](C)NC(=O)[C@@H]1CSSC[C@H](NC(=O)[C@@H](N)CCCCNC(=O)CC[C@H](NC(=O)CCCCCCCCCCCCCCCCCCC(=O)O)C(=O)O)C(=O)N[C@@H](CC(N)=O)C(=O)N[C@@H]([C@@H](C)O)C(=O)N[C@@H](C)C(=O)N[C@@H]([C@@H](C)O)C(=O)N1)[C@@H](C)O)C(=O)N1CCC[C@H]1C(=O)N[C@@H](CO)C(=O)N[C@@H](CO)C(=O)N[C@H](C(=O)N[C@@H](CC(N)=O)C(=O)N[C@H](C(=O)NCC(=O)N[C@@H](CO)C(=O)N[C@@H](Cc1c[nH]cn1)C(=O)N[C@H](C(=O)N[C@@H](Cc1ccc(O)cc1)C(N)=O)[C@@H](C)O)C(C)C)[C@@H](C)O, also called compound 66) |
